# Test results from patent publication US20260200990A1, “MODIFIED LONG PEPTIDES SUITABLE FOR USE IN IMMUNISATION” (ISABELLA PHARMA B.V., priority 2022, published 2026).
# Ends that are not written are not given here.
# Legend:
# [1] = Stability of cysteine and cystine-containing peptides in 20% v/v DMSO in WFI (UPLC-UV-MS purity); assay type: physicochemical; details: room temperature
# Method: To examine the effect on stability of a peptide that contains cysteine(s) (non-oxidized, C) or cystine(s) (oxidized, C (C)) in a formulation matrix (20% v/v DMSO in WFI (water for injection), four non-oxidized (SEQ ID NO: 1, 2, 3 and 4) and their oxidized, cystine-containing, peptides were manufactured and individually examined in 20% v/v DMSO (aq.)
# Each peptide (2.0 mg) was dissolved in 2.0 ml of 0.09% TFA in H2O: acetonitrile (1:1, v/v). Aliquots of 200 μL were transferred to a 1 mL amber vial and then freeze dried overnight. An aliquot (0.2 mg) was then redissolved in 20% v/v DMSO in WFI (1 mL). After swirling for 2 minutes, a sample was analyzed by UPLC-UV-MS. The remainder of the sample was stored at room temperature and analyzed at different time intervals (1 h, 2 h, 3 h, 4 h). The identity and purity of the purified peptides were then determined by UPLC-UV-MS on a Waters Acquity UPLC/TQD system using an C18 Waters Acquity BEH130 analytical column (1.7 μm particle size, 2.1×150 mm, flow 0.4 mL/min) with a linear gradient (5% B to 95% B, linear gradient in 10 min). The absorbance was measured at 220 nm.
# MassLynx v4.1 was used to integrate the individual peaks of the chromatogram in the region of the observed peptide-derived signals. The following ApexTrack peak detection parameters were used for integration: peak-to-peak baseline noise was set at automatic, peak width at 5% height was set at automatic, baseline start threshold of 0.05% and baseline end threshold of 0.05%. The detect shoulder function was turned on. The following response thresholds were set: relative height of 0.20 and relative area of 0.10. After the peak of the desired peptide was identified by MS, the corresponding integral of the peak in the UV chromatogram is reported in Table 2 as percentage of the total integrated peaks, purity (% a/a).
# Purity of the non-oxidized and oxidized peptide composition over time was evaluated over 4 h. Additional mass adducts, consistent with the formation of intermolecular or intramolecular disulfide bonds, increased over time in all spectra of cysteine-containing peptides compared to cystine-containing peptides. The purity of the non-oxidized peptides set forth in SEQ ID NO: 1, 3 and 4 declined from >90% a/a at to less than 80% a/a with the lowest stability observed for SEQ ID NO: 1 with a purity of 64% a/a after 4 h. For the cystine-containing peptide analogs, the purity remained >90% a/a after 4 h.
# [2] = Stability of peptide mixtures under long term and accelerated storage (UPLC); assay type: physicochemical; details: peptide in mixture of 6 peptides
# Method: To examine the effect on stability of peptides that contain cystine (oxidized, C (C)) present in a mixture of 6 peptides, two examples of mixtures of both non-cysteine-containing (NCC1-6) and cystine-containing (SEQ ID NO: 1-6) peptides were assessed. Typical chromatograms of the two mixtures are depicted in FIG. 2. Both mixtures were placed on two different storage conditions, ‘long term storage condition’ (i.e. −20±5° C.) and ‘accelerated storage condition’ (i.e. 5±3° C.).
# The purity, the level of impurities, and the quantification per peptide of both mixtures are determined by reversed phase rapid UPLC using a mobile phase gradient of ACN/IPA and water with TFA, and UV detection at λ=220 nm. The method quantifies main peaks and impurities in mixtures of peptides. The reporting threshold for the method is 0.10% a/a.
# Both mixtures of six peptides were stored under the two conditions described and by using the analytical method as described. The stability was monitored. The quantity of each of the peptides present in the mix (assay values), the purity, and the individual impurities were measured at several timepoints over a period of 3 months. […] Furthermore, focussing on the individual impurities it is shown that no significant degradation has taken place as all levels remain constant and no new impurities have formed.
# [3] = system: T cells cultured from PBMC from healthy donors; test: T cell induction by PRAME-based SLPs, IFNy ELISpot (test 1 and test 2); design: species or system human; key to ELISPOT IFNy / ELISPOT IFNy, summary of the results in the table: − (negative); + (positive); When at least one donor had a positive response, this is denoted as POS; details: 2 peptide pools
# Method: The capacity of human-PRAME-based SLPs to activate T cells was studied. The biological activity of the synthesized and purified SLPs was tested using PBMC from healthy donors. Monocytes were isolated using anti-CD14 beads by magnet activated cell sorting (MACS) following the protocol of the supplier (Miltenyi Biotec). In short, PBMCs were isolated by centrifugation over a Ficoll gradient and cryopreserved. To generate dendritic cells (DCs), approximately […] thawed PBMC were used for the isolation of CD14 positive cells. The cells were cultured for three days at 37° C. in 2 ml/well of IMDM 4% human serum (HS) containing 800 U/ml GM-CSF and 500 U/ml IL-4 (Peprotech). After 3 days 1 mL/well of IMDM 4% HS with GM-CSF (2400 U/mL) and IL-4 (1500 U/mL) was added to the monocytes-derived DCs and these adhered cells were cultured for an additional 3 days. On day 6, long peptides distributed over 2 pools were added to monocyte-derived DCs of naive donors at a 13 μM concentration and incubated overnight at 37° C. The next day (day 7) peptide-loaded DCs were harvested, irradiated (1000 rad), washed and mixed in a 1:10 ratio with autologous PBMC in IMDM 8% human serum in the presence of IL-7 (10 ng/ml) and IL-12p70 (100 μg/mL).
# On day 10 new DCs were generated and loaded, after 6 days, with SLPs on day 16 as described above. The next day, these peptide-loaded DCs were harvested, irradiated (1000 rad) and washed. Also the cultured T cells were harvested. Both were counted and mixed in a 1:10 ratio (DC:T) in IMDM 8% human serum in the presence of IL-7 (10 ng/ml) and IL-12p70 (100 μg/mL) for the first restimulation. On the same day, new DCs were generated as described above that were loaded with SLPs on day 23 as described above. The next day, peptide-loaded DCs were harvested, irradiated (1000 rad) and washed. Also the cultured and restimulated T cells were harvested. Both were counted and mixed in a 1:10 ratio (DC:T) in IMDM 8% human serum in the presence of IL-7 (10 ng/ml) and IL-12p70 (100 μg/mL) for the second restimulation.
# On this day 24, also test 1 was started in which DCs loaded with individual SLPs were cultured with harvested T cells from restimulation 1. For test 1, DCs and harvested T cells were cultured in a 1:10 ratio for 2 days after which cells were transferred to a coated ELISpot plate (see description below). On day 24, new DCs were generated as described above that were loaded with SLPs on day 30 as described above. The next day, peptide-loaded DCs were harvested, irradiated (1000 rad) and washed. Also the cultured twice restimulated T cells were harvested. Both were counted and mixed in a 1:10 ratio (DC:T) in IMDM 8% human serum in the presence of IL-2 (30 IU/mL) and IL-12p70 (100 μg/mL) for the third restimulation.
# On day 31, also test 2 was started in which DCs loaded with individual SLPs were cultured with harvested T cells from restimulation 2. For test 2, DCs and harvested T cells were cultured in a 1:10 ratio for 2 days after which cells were transferred to a coated ELISpot plate (see description below).
# The T cell cultures were restimulated three times in 1-week cycles using peptide loaded autologous moDCs. After the 2nd and 3rd restimulation, reactivity towards single SLPs was tested (test 1 and test 2, respectively). Reactivity was determined by measuring IFNy production using ELISpot.
# For ELISpot analysis, multiscreen plates were coated with an IFNy coating antibody overnight at 4° C. The next day, the plate was washed 4× with PBS and blocking was done using IMDM 8% HS at 37° C. for at least one hour. Each sample was tested in triplicate. As a positive control, phytoheamagglutinin (PHA, 1 μg/mL) was added to cells that were not stimulated with SLP after thawing. The plate was cultured overnight at 37° C. Thereafter, cells were discarded and the plate was washed using PBS/0.05% Tween-20. The IFNy detection antibody was diluted and added to each well and incubated for 2 hours at room temperature. […]
Sequence,Purity (% a/a) ([1]; Time 0 h),Purity (% a/a) ([1]; Time 1 h),Purity (% a/a) ([1]; Time 2 h),Purity (% a/a) ([1]; Time 3 h),Purity (% a/a) ([1]; Time 4 h),Assay (net peptide content) (mg/vial) ([2]; Initial),"Assay (net peptide content) (mg/vial) ([2]; Storage at 5 ± 3° C., T1M)","Assay (net peptide content) (mg/vial) ([2]; Storage at 5 ± 3° C., T2M)","Assay (net peptide content) (mg/vial) ([2]; Storage at 5 ± 3° C., T3M)","Assay (net peptide content) (mg/vial) ([2]; Storage at −20 ± 5° C., T2M)","Assay (net peptide content) (mg/vial) ([2]; Storage at −20 ± 5° C., T3M)",also measured
"AARLCCQLDPARDVLCLRPVGAESR [Cysteine (C) containing SEQ ID NO: 4, reference compound]",96.51 % a/a,90.72 % a/a,83.13 % a/a,77.16 % a/a,72.13 % a/a,,,,,,,
AARLCCQLDPARDVLCLRPVGAESR [Cystine(C(C)) containing SEQ ID NO: 4],93.50 % a/a,94.26 % a/a,93.58 % a/a,93.16 % a/a,92.89 % a/a,0.21 mg/vial,0.20 mg/vial,0.21 mg/vial,0.21 mg/vial,0.20 mg/vial,0.21 mg/vial,
"HLSLRGLPVCAFSSAGPCALRFTSA [Cysteine (C) containing SEQ ID NO: 1, reference compound]",95.01 % a/a,86.88 % a/a,78.20 % a/a,70.34 % a/a,64.12 % a/a,,,,,,,
LSAMSTTDLEAYFKDCLFKDWEELG [SEQ ID 2],,,,,,0.24 mg/vial,0.24 mg/vial,0.25 mg/vial,0.25 mg/vial,0.25 mg/vial,0.25 mg/vial,
"VLSRKYTSFPWLLGCTANWILRGTSFVYVPSALNPA [Cysteine (C) containing SEQ ID NO: 3, HBV Pol fragment, unmodified cysteine comparator, reference compound]",97.66 % a/a,93.48 % a/a,87.94 % a/a,84.12 % a/a,79.81 % a/a,,,,,,,
"VVNHYFQTRHYLHTLWKAGILYKRETTRSASFCGSPYSW (VVNHYFQTRHYLHTLWKAGILYKRETTRSASFC(Cys)GSPYSW) [SEQ ID 5, HBV Pol fragment SLP with cysteinylated cysteine]",,,,,,0.20 mg/vial,0.20 mg/vial,0.21 mg/vial,0.22 mg/vial,0.20 mg/vial,0.22 mg/vial,
"VWTSPRRLVELAGQSLLKDEALAIAALELLPRELF (listed as Homo sapiens) [SEQ ID NO: 42, PRAME-based SLP]",,,,,,,,,,,,"ELISPOT IFNy ([3]; donor BC290, Test 1): −; ELISPOT IFNy ([3]; donor BC290, Test 2): −; ELISPOT IFNy ([3]; donor BC298, Test 1): +; ELISPOT IFNy ([3]; donor BC298, Test 2): +; ELISPOT IFNy ([3]; donor BC305, Test 1): −; ELISPOT IFNy ([3]; donor BC305, Test 2): −; ELISPOT IFNy ([3]; donor BC306, Test 1): −; ELISPOT IFNy ([3]; donor BC306, Test 2): −; ELISPOT IFNy ([3]; donor BC312, Test 1): −; ELISPOT IFNy ([3]; donor BC312, Test 2): −; ELISPOT IFNy ([3]; donor BC315, Test 1): −; ELISPOT IFNy ([3]; donor BC315, Test 2): −; ELISPOT IFNy ([3]; donor BC321, Test 1): +; ELISPOT IFNy ([3]; donor BC321, Test 2): −"
"YPALMPLYACIQAKQAFTFSPTYKAFLSKQYMNLYPVAR (cysteinylated cysteine) [SEQ ID 6, HBV Pol fragment SLP with cysteinylated cysteine]",,,,,,0.21 mg/vial,0.20 mg/vial,0.21 mg/vial,0.22 mg/vial,0.20 mg/vial,0.22 mg/vial,
